# Measured values taken from patent publication US20200208162.
# Key:
# [1] = test system: TLNmir604S3Fw TALEN (encoded by cTNmir604Fw3-01); assay: cell_activity; details: as pair with P2; maize NP2222 immature embryos, Chry5d2 delivery of TALEN and donor; 5.6-24.9% with other strain combinations; printed half-site ends in T …
# [2] = test system: TLNmir604S3Rv TALEN (encoded by cTNmir604Rv3-01); assay: cell_activity; details: as pair with P1; maize NP2222 immature embryos, Chry5d2 delivery of TALEN and donor; 5.6-24.9% with other strain combinations
Sequence,activity [1] [%],activity [2] [%]
TCCGTGCAGTGCAGTGT (double strand) [MIR604FR3 forward half-site],33.3,
TCCTAAACAAAGGAGGT (double strand) [MIR604FR3 reverse half-site],,33.3
